The text below walks through data of PMC2894021, “Transcriptional control by two leucine-responsive regulatory proteins in Halobacterium salinarum R1” (BMC Molecular Biology, 2010).

For data set [1], the target named is T1, LrpA1 (Halobacterium salinarum R1) (UniProt B0R4X4).
T1 sequence: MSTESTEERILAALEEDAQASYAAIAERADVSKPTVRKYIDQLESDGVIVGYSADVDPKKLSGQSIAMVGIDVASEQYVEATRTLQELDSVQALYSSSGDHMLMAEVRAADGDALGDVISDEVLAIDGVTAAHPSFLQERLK
In words: DNA-affinity chromatography (pull-down), SDS-PAGE densitometry. The note with it: CFE buffer: 3 M KCl, 1 M NaCl, 5 mM MgCl2, 10 mM HEPES pH 7.1; room temperature, 4 h; 2 nmol LrpA1, 61 pmol biotinylated DNA; elution with 1% SDS.

In the next data set the target is LrpA1 (Halobacterium salinarum, UniProt B0R4X4). The data set is described as follows: analytical DNA-affinity chromatography with aspB3 promoter, SDS-PAGE densitometry. The note with it: 5 mM L-aspartate; 3 M KCl, 1 M NaCl, 5 mM MgCl2, 10 mM HEPES, pH 7.1; room temperature, 4 h; effector of DNA binding, indirect read-out. The class given is biochemical.
Data set [2] has as its system LrpA1 (Halobacterium salinarum R1). In words: DNA-affinity chromatography (pull-down), SDS-PAGE densitometry. The settings on record: CFE buffer: 3 M KCl, 1 M NaCl, 5 mM MgCl2, 10 mM HEPES pH 7.1, room temperature, 4 h, 2 nmol LrpA1, 61 pmol biotinylated DNA.
Data set [3] concerns the molecule itself. In words: SEC; Superdex 200 3.2/3 column on a SMART device, 50 ul per min, CFE buffer (3 M KCl; 1 M NaCl; 10 mM HEPES, pH 7.1); LrpA1-His6 after renaturation; monomer to dimer.

As a reminder, the stoichiometry N is a count of units in the complex or per binding partner.

Take “ACGACACCGGGTCGTTTTGATTGTCGGCTACGTGTCGCAGTGTTGGCGGTAGCGCCGCTCCAACGGTGGTTCCGTGGCGTTCCGCTGTCGGTTGACGATTCGGAAGATATTTTTTCACACGAACCAAATATCCTGACGTGAGCACTGAATCGACAGAAGAGCGAATCCTCGCCGCGCTCGAAGAGGACGCGCAAGCGTCGTATGCGGCCATCGCGGAGCGTGCGGACGTCTCCA (double strand) [lrpA1-Pincl]”: in data set [1], the binding signal (% band density) was 100.

Regarding “ATCGCGCTTGAACGTCTGCATACGTCCGCTACGCACCAGGCGCGCAAAACTTCAGGGGGTTCGGGACCCGCGGGTTGTGCCGTGATAGCACACGCGTCCCGCAGGAACGATTATGAGGGATGGCCGCGATCCTGCTGGCATGCCTTCGGAGCGCGCGGCTGCGGTCACGCCGTTCGCCGCGATGGATGTCCTCGAACGCGCCGCCGAC (double strand) [aspB3-Pincl]”, the binding signal (% band density) in data set [1] is 100.

As to `N[C@@H](CC(=O)O)C(=O)O` [L-aspartate], the “relative binding efficiency to aspB3-Pincl DNA” value on LrpA1 is listed as “resulting in significantly enhanced binding of LrpA1 to the aspB3Pincl sequence”.

For lrpA1-Pincl, the binding signal (% band density) in data set [2] (no amino acid, elution with 1% …) was found to be 100.

aspB3-Pincl: the binding signal (% band density) in data set [2] (5 mM L-arginine, text: binding not enhanced by arginine, elution with 1% SDS) turned out to be 100; in data set [2] (5 mM L-aspartate, elution with 1% SDS), 100. Also, the binding signal (% of aspB3-Pincl + 5 mM Arg) in data set [2] (no amino acid (arginine experiment), elution with 1% SDS) worked out at 77. Also, the binding signal (% of aspB3-Pincl + 5 mM Asp) in data set [2] (no amino acid (aspartate experiment), elution with 1% SDS) was 34.

Regarding flgB1 control DNA, the binding signal (% of aspB3-Pincl + 5 mM Arg) in data set [2] (5 mM L-arginine, non-specific background, elution with 1% SDS) is 30. Moreover, the binding signal (% of aspB3-Pincl + 5 mM Asp) in data set [2] (5 mM L-aspartate, non-specific background, elution with 1% SDS) is 7. In addition, in data set [2] (no amino acid, non-specific background, elution with 1% SDS), the binding signal (% of lrpA1-Pincl) came out at 37.

Turning to “ACGACACCGGGTCGTTTTGATTGTCGGCTACGTGTCGCAGTGTTGGCGGTAGCGCCGCTCCAACGGTGGTTCCGTGGCGTTCCGCTGTCGGTTGACGATTCGGAAGATACCCTTTCACACGAACCCCCTATCCTGACGTGAGCACTGAATCGACAGAAGAGCGAATCCTCGCCGCGCTCGAAGAGGACGCGCAAGCGTCGTATGCGGCCATCGCGGAGCGTGCGGACGTCTCCA (double strand) [lrpA1-Pincl (mutated)]”, in data set [1], the binding signal (% of lrpA1-Pincl) was 24.

B1: H. salinarum LrpA1 (OE2621R), His6-tagged (natural protein, Halobacterium salinarum R1, UniProt B0R4X4 1-142, looked up)
chain: MSTESTEERILAALEEDAQASYAAIAERADVSKPTVRKYIDQLESDGVIVGYSADVDPKKLSGQSIAMVGIDVASEQYVEATRTLQELDSVQALYSSSGDHMLMAEVRAADGDALGDVISDEVLAIDGVTAAHPSFLQERLK
notes: Leucine-responsive regulatory protein homologue LrpA1 of Halobacterium salinarum R1, locus OE2621R; theoretical size of the monomer 15.2 kDa; amplified by PCR and cloned NdeI/XhoI into pET26b; the cloning primers are in additional file 10; also called LrpA1-His6; transcription regulator LrpA1; source: E. coli BL21(DE3), pET26b; purified on Ni-NTA in 8 M urea, renatured by dialysis against high …
As for B1, the “stoichiometry N” value in data set [3] is 2.
